In patent US20180193486A1, “COMPOSITIONS AND METHODS FOR TREATMENT OF AUTOIMMUNE AND OTHER DISEASE” (priority 2010, published 2018):

Target: reconstituted human albumin (Homo sapiens, UniProt P02768)
Experiment: Release of CPT in reconstituted human albumin (PBS solution)
Format: in vitro ADME
Conditions: compared with PBS
Description: This solution was added to a lyophilized powder of human plasma to reconstitute 100% human plasma by the recommended amount. The solution was divided into equal volume (250 μL) to 1.5 mL Eppendorf tubes, incubated at 37° C., and stopped at selected time point. Samples were stored at −80° C. until the analysis. Samples were separated from plasma by solid phase extraction columns. The solid phase extraction cartridge (Oasis HLB 1 cc cartridge from Waters) was pre-conditioned with 1 mL of acetonitrile and then with 1 mL of 8.5% H3PO4 before loading. Samples were acidified with equal volume of 8.5% H3PO4 prior to loading. After the acidified solution was loaded on the cartridge, the bed was washed with 3×1 mL of water. Released CPT and polymer conjugate were eluted with 3×1 mL of a solution mixture of acetonitrile and potassium phosphate buffer (pH 4.1) (60/40 v/v). The eluted solution was diluted to 5 mL total volume in a 5 mL volumetric flask. 30 μL of such solution was injected into the HPLC. The peak area from the CPT lactone form was integrated and compared to a standard curve.

Sequence of reconstituted human albumin (P02768 25-609): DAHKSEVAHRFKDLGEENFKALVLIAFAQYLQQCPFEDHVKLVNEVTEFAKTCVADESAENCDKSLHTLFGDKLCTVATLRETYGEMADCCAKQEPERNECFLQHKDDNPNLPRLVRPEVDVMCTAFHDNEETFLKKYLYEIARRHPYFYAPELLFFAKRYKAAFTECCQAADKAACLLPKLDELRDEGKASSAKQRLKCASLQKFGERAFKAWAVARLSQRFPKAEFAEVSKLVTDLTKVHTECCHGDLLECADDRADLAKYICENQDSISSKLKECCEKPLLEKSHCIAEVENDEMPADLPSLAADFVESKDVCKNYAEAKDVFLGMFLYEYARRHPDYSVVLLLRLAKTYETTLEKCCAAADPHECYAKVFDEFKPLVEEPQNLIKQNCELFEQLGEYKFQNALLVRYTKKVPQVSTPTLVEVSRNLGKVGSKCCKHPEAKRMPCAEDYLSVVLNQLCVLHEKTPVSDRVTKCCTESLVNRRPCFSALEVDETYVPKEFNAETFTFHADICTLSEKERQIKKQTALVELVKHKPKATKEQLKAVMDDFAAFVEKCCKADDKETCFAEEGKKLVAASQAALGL

| Substance | CPT release rate in the presence of albumin |
| --- | --- |
| Poly(CDDCys-PA-PEG)-GlyGlyGly-CPT [HGGG6] | on the same order of magnitude as in PBS |
| Poly(CDDCys-PA-PEG)-Gly-CPT [HG6] | on the same order of magnitude as in PBS |
